Molecular target: TNF-alpha (UniProt P01375 77-233)
Assay: FRET quenching (QD photoluminescence decreases with TNF-alpha); DSS peptide-conjugated QD/Au molecular beacon, TNF-alpha in PBS; TNF-alpha samples in PBS; other assay conditions (temperature, concentrations) not in the material; beacon washed in 50 mM borate pH 8.3
Settings: chain copies: 3

Sequence of TNF-alpha (P01375 77-233): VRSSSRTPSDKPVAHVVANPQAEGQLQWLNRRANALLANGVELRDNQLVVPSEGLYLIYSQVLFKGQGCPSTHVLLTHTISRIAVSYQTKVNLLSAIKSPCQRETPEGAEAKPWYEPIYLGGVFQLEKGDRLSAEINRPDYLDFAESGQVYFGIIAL

TGGTGGATGGCGCAGTCGGCGACAA (ssDNA, 5' Amino C6; 3' Thiol C6 SS) [TNF-alpha binding DNA aptamer (25 nt) in DSS-molecular beacon]: binds.

Reference: article PMC7413375, “A study on the response of FRET based DNA aptasensors in intracellular environment”
